Experimental data: the supplement of paper PMC11316812
± gives the standard deviation of the averaged measurements.

Tests used:
MCF7 = experiment: percentage of EdU-negative (G0-arrested) nuclei per well, 72 h; higher = more G0 arrest; settings: reference: sequence is the full UniProt precursor, the tested protein was the secreted form or ectodomain
hTERT-HMEC = experiment: as above; settings: reference: sequence is the full UniProt precursor, the tested protein was the secreted form or ectodomain
[1] = protein concentration 0.0225 µM
[2] = protein concentration 0.0334286 µM
[3] = protein concentration 0.334286 µM
[4] = protein concentration 0.0357143 µM
[5] = protein concentration 0.357143 µM
[6] = protein concentration 0.0165714 µM
[7] = protein concentration 0.165714 µM
[8] = protein concentration 0.0183225 µM
[9] = protein concentration 0.183225 µM
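Further: secreted proteins added to cultured cells, EdU pulse at the end, nuclei found by Hoechst imaging, EdU status from nuclear versus surrounding ring intensity ratio, PBS as neutral control.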

Q8WXD2, sequence (chain, as listed by the source): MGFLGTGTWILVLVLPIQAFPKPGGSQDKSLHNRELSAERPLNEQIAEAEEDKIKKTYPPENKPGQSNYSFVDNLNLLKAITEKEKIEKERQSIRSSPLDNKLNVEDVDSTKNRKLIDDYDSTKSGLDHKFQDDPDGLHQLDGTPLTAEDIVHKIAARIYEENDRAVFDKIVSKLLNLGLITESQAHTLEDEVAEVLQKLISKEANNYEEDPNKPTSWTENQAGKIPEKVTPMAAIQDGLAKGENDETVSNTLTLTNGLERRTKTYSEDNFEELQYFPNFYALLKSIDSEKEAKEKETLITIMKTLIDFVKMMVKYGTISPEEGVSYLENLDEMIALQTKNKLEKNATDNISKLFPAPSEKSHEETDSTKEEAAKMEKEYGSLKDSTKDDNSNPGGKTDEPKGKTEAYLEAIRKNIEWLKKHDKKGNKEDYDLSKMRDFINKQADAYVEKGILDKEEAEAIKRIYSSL

Row | Substance | percentage of EdU-negative (MCF7; [1]) [%] | percentage of EdU-negative (MCF7; protein concentration 0.225 µM) [%] | percentage of EdU-negative (hTERT-HMEC; [1]) [%] | percentage of EdU-negative (hTERT-HMEC; protein concentration 0.225 µM) [%] | further results
1 | MVDGVMILPVLIMIALPSPSMEDEKPKVNPKLYMCVCEGLSCGNEDHCEGQQCFSSLSINDGFHVYQKGCFQVYEQGKMTCKTPPSPGQAVECCQGDWCNRNITAQLPTKGKSFPGTQNFHLEVGLIILSVVFAVCLLACLLGVALRKFKRRNQERLNPRDVEYGTIEGLITTNVGDSTLADLLDHSCTSGSGSGLPFLVQRTVARQITLLECVGKGRYGEVWRGSWQGENVAVKIFSSRDEKSWFRETELYNTVMLRHENILGFIASDMTSRHSSTQLWLITHYHEMGSLYDYLQLTTLDTVSCLRIVLSIASGLAHLHIEIFGTQGKPAIAHRDLKSKNILVKKNGQCCIADLGLAVMHSQSTNQLDVGNNPRVGTKRYMAPEVLDETIQVDCFDSYKRVDIWAFGLVLWEVARRMVSNGIVEDYKPPFYDVVPNDPSFEDMRKVVCVDQQRPNIPNRWFSDPTLTSLAKLMKECWYQNPSARLTALRIKKTLTKIDNSLDKLKTDC | 26.7 ± 0.75 | 27.2 ± 0.41 | 5.41 ± 0.37 | 5.41 ± 1.3 | 
2 | MKLDMTGDCTPVLVLMAAVLTVTGAVPVARLHGALPDARGCHIAQFKSLSPQELQAFKRAKDALEESLLLKDCRCHSRLFPRTWDLRQLQVRERPMALEAELALTLKVLEATADTDPALVDVLDQPLHTLHHILSQFRACIQPQPTAGPRTRGRLHHWLYRLQEAPKKESPGCLEASVTFNLFRLLTRDLNCVASGDLCV [Q8IZJ0] |  |  |  |  | percentage of EdU-negative (MCF7; [2]): 22.9 ± 3.6%; percentage of EdU-negative (MCF7; [3]): 25.9 ± 4.6%; percentage of EdU-negative (hTERT-HMEC; [2]): 5.29 ± 0.59%; percentage of EdU-negative (hTERT-HMEC; [3]): 9.88 ± 1.6%
3 | MAQYLSTLLLLLATLAVALAWSPKEEDRIIPGGIYNADLNDEWVQRALHFAISEYNKATKDDYYRRPLRVLRARQQTVGGVNYFFDVEVGRTICTKSQPNLDTCAFHEQPELQKKQLCSFEIYEVPWENRRSLVKSRCQES | 25.5 ± 1.2 | 25 ± 0.45 | 5.26 ± 0.4 | 5.09 ± 0.29 | 
4 | MAPRGCIVAVFAIFCISRLLCSHGAPVAPMTPYLMLCQPHKRCGDKFYDPLQHCCYDDAVVPLARTQTCGNCTFRVCFEQCCPWTFMVKLINQNCDSARTSDDRLCRSVS [Q6UW32] |  |  |  |  | percentage of EdU-negative (MCF7; [4]): 24.2 ± 1.9%; percentage of EdU-negative (MCF7; [5]): 25.5 ± 0.59%; percentage of EdU-negative (hTERT-HMEC; [4]): 4.73 ± 0.98%; percentage of EdU-negative (hTERT-HMEC; [5]): 5.65 ± 1.1%
5 | Q8WXD2 |  |  |  |  | percentage of EdU-negative (MCF7; [6]): 25.6 ± 3.6%; percentage of EdU-negative (MCF7; [7]): 29.2 ± 1.7%; percentage of EdU-negative (hTERT-HMEC; [6]): 5.59 ± 0.58%; percentage of EdU-negative (hTERT-HMEC; [7]): 6.19 ± 0.24%
6 | MQGPWVLLLLGLRLQLSLGIIPVEEENPDFWNRQAAEALGAAKKLQPAQTAAKNLIIFLGDGMGVSTVTAARILKGQKKDKLGPETFLAMDRFPYVALSKTYSVDKHVPDSGATATAYLCGVKGNFQTIGLSAAARFNQCNTTRGNEVISVMNRAKKAGKSVGVVTTTRVQHASPAGAYAHTVNRNWYSDADVPASARQEGCQDIATQLISNMDIDVILGGGRKYMFPMGTPDPEYPDDYSQGGTRLDGKNLVQEWLAKHQGARYVWNRTELLQASLDPSVTHLMGLFEPGDMKYEIHRDSTLDPSLMEMTEAALLLLSRNPRGFFLFVEGGRIDHGHHESRAYRALTETIMFDDAIERAGQLTSEEDTLSLVTADHSHVFSFGGYPLRGSSIFGLAPGKARDRKAYTVLLYGNGPGYVLKDGARPDVTESESGSPEYRQQSAVPLDGETHAGEDVAVFARGPQAHLVHGVQEQTFIAHVMAFAACLEPYTACDLAPRAGTTDAAHPGPSVVPALLPLLAGTLLLLGTATAP | 23.9 ± 3.7 | 27.2 ± 0.72 | 4.62 ± 0.18 | 5.34 ± 0.29 | 
7 | MLPLLLLPLLWGGSLQEKPVYELQVQKSVTVQEGLCVLVPCSFSYPWRSWYSSPPLYVYWFRDGEIPYYAEVVATNNPDRRVKPETQGRFRLLGDVQKKNCSLSIGDARMEDTGSYFFRVERGRDVKYSYQQNKLNLEVTALIEKPDIHFLEPLESGRPTRLSCSLPGSCEAGPPLTFSWTGNALSPLDPETTRSSELTLTPRPEDHGTNLTCQMKRQGAQVTTERTVQLNVSYAPQTITIFRNGIALEILQNTSYLPVLEGQALRLLCDAPSNPPAHLSWFQGSPALNATPISNTGILELRRVRSAEEGGFTCRAQHPLGFLQIFLNLSVYSLPQLLGPSCSWEAEGLHCRCSFRARPAPSLCWRLEEKPLEGNSSQGSFKVNSSSAGPWANSSLILHGGLSSDLKVSCKAWNIYGSQSGSVLLLQGRSNLGTGVVPAALGGAGVMALLCICLCLIFFLIVKARRKQAAGRPEKMDDEDPIMGTITSGSRKKPWPDSPGDQASPPGDAPPLEEQKELHYASLSFSEMKSREPKDQEAPSTTEYSEIKTSK | 25 ± 0.77 | 29.26 ± 0.077 | 5.12 ± 0.15 | 5.64 ± 1 | 
8 | MKALIVLGLVLLSVTVQGKVFERCELARTLKRLGMDGYRGISLANWMCLAKWESGYNTRATNYNAGDRSTDYGIFQINSRYWCNDGKTPGAVNACHLSCSALLQDNIADAVACAKRVVRDPQGIRAWVAWRNRCQNRDVRQYVQGCGV |  |  |  |  | percentage of EdU-negative (MCF7; [8]): 25.9 ± 0.84%; percentage of EdU-negative (MCF7; [9]): 24.489 ± 0.011%; percentage of EdU-negative (hTERT-HMEC; [8]): 5.192 ± 0.011%; percentage of EdU-negative (hTERT-HMEC; [9]): 4.83 ± 0.071%
